Experimental findings from paper PMC2703826 are described below.

The target of this experiment is C-terminal hydrophilic (cytoplasmic) domain of non-structural protein 4 from mouse hepatitis virus strain A59, wild type (mouse hepatitis virus strain A59). The experiment can be described thus: SEC; Superdex75, 50 mM Tris-Cl pH 8.5, 300 mM NaCl (legend: 150 mM NaCl), no reducing agent, 0.5 mL/min; calibrated with marker proteins. In general terms: In gel filtration, larger molecules generally elute earlier.

By stoichiometry N is commonly meant the number of molecules, sites or subunits per partner or assembly.

As to “C-terminal hydrophilic (cytoplasmic) domain of non-structural protein 4 from mouse hepatitis virus strain A59, wild type (domain or fragment)”, the stoichiometry N was 2.
